Target: IL-15Rα expressed by TF-1 cells (human) (UniProt Q13261)
Test: cell-based or functional assay

Chain of UniProt Q13261 (Q13261 31-267): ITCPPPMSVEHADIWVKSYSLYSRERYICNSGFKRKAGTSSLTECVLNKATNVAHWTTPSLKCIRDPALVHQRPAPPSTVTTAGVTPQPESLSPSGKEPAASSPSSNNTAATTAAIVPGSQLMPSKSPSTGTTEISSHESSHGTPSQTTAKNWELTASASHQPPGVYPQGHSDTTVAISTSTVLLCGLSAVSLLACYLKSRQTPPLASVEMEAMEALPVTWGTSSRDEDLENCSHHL

| EC50 (pM), TF-1β proliferation | Maximal induction (% WT), TF-1β proliferation | Relative activity (% WT), TF-1β proliferation | Substance |
| --- | --- | --- | --- |
| > 20 pM | 0 % WT | < 30 % WT | FLAG-IL-15 L44D (from UniProt P40933 49-162) (ligand) |
| > 60 pM | 0 % WT | < 10 % WT | FLAG-IL-15 L47D (from UniProt P40933 49-162) (ligand) |

From patent publication US20110158938A1
